# Source: patent publication US20210095028A1 (NANJING LEGEND BIOTECH, published 2021)
# Residue numbers refer to the chain shown, from its start.
# T1: human TIGIT over-expressed on cells (human, UniProt Q495A1 22-244)
# T1 construct: also called CHO-K1/human TIGIT cells; CHO cells expressing human TIGIT
# T1 sequence: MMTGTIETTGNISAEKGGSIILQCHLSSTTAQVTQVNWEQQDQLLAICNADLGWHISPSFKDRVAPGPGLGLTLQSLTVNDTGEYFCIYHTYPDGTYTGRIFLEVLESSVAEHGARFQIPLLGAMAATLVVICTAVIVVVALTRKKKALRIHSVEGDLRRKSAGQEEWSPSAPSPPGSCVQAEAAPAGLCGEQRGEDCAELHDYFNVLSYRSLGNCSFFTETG
# T2: Human TIGIT protein with HIS tag (human, UniProt Q495A1 22-141)
# T2 construct: A soluble analyte is probably only the extracellular part; also called human TIGIT recombinant protein; not shown: HIS tag
# T2 sequence: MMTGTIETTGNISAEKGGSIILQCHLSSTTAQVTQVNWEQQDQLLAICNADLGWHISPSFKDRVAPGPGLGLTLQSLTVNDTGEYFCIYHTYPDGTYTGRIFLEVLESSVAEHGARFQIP
# B1: 104G12E12G2 (antibody, V domains shown)
# VH: EVQLQQSGPELVKPGASVKISCKASGYSFTGSYIHWVKQNHVKTLEWIGRINPHNGPTSYNQNFKGKASLTVDLSSSTAYMEVHSLTSEDSAVYYCVRYDGYYGGALDYWGQGTSVTVSS
# VL: DIQMTQSPSSLSASLGERVSLTCRASQEISGYLSWLQQKPDGTIKRLIYAASTLDSGVPKRFSGSRSGSDYSLTISSLESEDFADYYCLQYASYPYTFGGGTKLEIK
# notes: Mouse monoclonal antibody; also called mouse anti-human TIGIT monoclonal antibody 104G12E12G2
# B2: 128E3G7F5 (antibody, V domains shown)
# VH: EVLLQQSGPELVKTGASVKISCKASGYSFTAYYMHWVKQSHGKSLEWIGYISCYNGATTYNQKFKGKATFTVDTSSTTAYMQFNSLTSEDSAVYYCARRVYYGYDEALVYWGQGTSVTVSS
# VL: DIVMTQSPSSLSVSAGEKVTMTCKSSQSLLNSGNQKNYLAWYQQKPGQPPKLLIYGASTRGSGVPDRFTGSGSGTDFTLTISSVQAEDLAVYYCQNDHSYPYTFGGGTKLEIK
# notes: Mouse monoclonal antibody; also called mouse anti-human TIGIT monoclonal antibody 128E3G7F5
# B3: 139E2C2D2 (antibody, V domains shown)
# VH: EVQLVESGGDLVKPGGSLKLSCAASGFTFSSYGMSWVRQTPDKRLEWVAIISSGGNYTYYPDSVKGRFTISRDNAKNTLYLQMSSLKSEDTAMYYCARQIHYFFAMDYWGQGTSVTVSS
# VL: DIQMTQSPASLSVSVGETVTITCRASENIYSNLAWYQQKQGKSPQLLVYAATNLADGAPSRFSGSRSGTQYSLKINSLQSEDFGSYYCQHFWGTAYTFGGGTKLEIK
# notes: Mouse monoclonal antibody; also called mouse anti-human TIGIT monoclonal antibody 139E2C2D2
# B4: 121C2F10B5 (antibody, V domains shown)
# VH: B3 VH with S31T, I50T, N56S, I100V, F104Y
# VL: B3 VL with L46V, A58V, G93D, T94N
# notes: Mouse monoclonal antibody; also called mouse anti-human TIGIT monoclonal antibody 121C2F10B5
# Target: T1, human TIGIT over-expressed on cells
# Assay: FACS, CHO-K1 cells over-expressing human TIGIT
# Experimental: (§1) The mixture was equilibrated for 30 minutes at room temperature and washed three times with FACS buffer (PBS containing 1% BSA). iFluor labeled goat anti-mouse IgG as the secondary antibody was added and incubated at room temperature for 45 min. Finally, the cells were washed 3 time with PBS, and the signal was read by FACS BD Calibur. Data was analyzed with PRISM™ (GraphPad Software, San Diego, Calif.) using non-linear regression and EC₅₀ values were calculated.
Binder,Bottom (best-fit),EC50 [nM],Top (best-fit)
B1,15.5,0.73,96.9
B2,16.2,0.3,98.7
B3,13.8,0.37,89.9
B4,14.2,0.36,92.7

# Target: T3, cynomolgus TIGIT over-expressed on CHO-K1 cells (cynomolgus, UniProt A0A7N9I9V4 89-312)
# T3 construct: whole, on cells; also called CHO-K1/cynomolgus TIGIT cells
# T3 sequence (A0A7N9I9V4 entry or part of it): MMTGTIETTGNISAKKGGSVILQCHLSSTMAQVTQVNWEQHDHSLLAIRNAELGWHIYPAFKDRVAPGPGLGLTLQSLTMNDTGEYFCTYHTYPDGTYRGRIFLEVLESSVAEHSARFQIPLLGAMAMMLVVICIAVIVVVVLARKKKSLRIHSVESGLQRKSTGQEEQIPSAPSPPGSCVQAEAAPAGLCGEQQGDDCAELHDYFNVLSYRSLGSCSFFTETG
# Assay: FACS, CHO-K1 cells over-expressing cynomolgus TIGIT
# Experimental: as §1
Binder,Bottom (best-fit),EC50 [nM],Top (best-fit)
B1,7,11.1,80.6
B2,7.5,8.38,66.2
B3,7.6,18.5,53.8
B4,7.6,10.2,120

# Target: T1, human TIGIT over-expressed on cells
# Assay: cell-based or functional assay
Binder,"IL-2 secretion in T cell activation, Bottom (best-fit)","IL-2 secretion in T cell activation, EC50 [nM]","IL-2 secretion in T cell activation, Top (best-fit)"
B1,108,3.31,189
B4,96.2,1.02,197

# Target: T2, Human TIGIT protein with HIS tag
# Assay: SPR Biacore T200; antibody Fc-captured, TIGIT-His analyte
# Experimental: Binding kinetics of mouse anti-human TIGIT monoclonal antibodies to human TIGIT were determined using a Surface Plasmon Resonance (SPR) biosensor, BIACORE® T200 (GE Healthcare; Little Chalfont, United Kingdom). […] Each mouse anti-human TIGIT monoclonal antibody was immobilized on the sensor chip through the Fc capture method. Human TIGIT protein with HIS tag was used as the analyte. The dissociation (kd) and association (kₐ) rate constants were obtained using the BIACORE® T200 evaluation software. The apparent equilibrium dissociation constants (KD) were calculated from the ratio of kd over kₐ.
Binder,Kd [nM],koff [s⁻¹],kon [M⁻¹ s⁻¹]
B1,2.3,0.00083,370000
B2,6.7,0.008,1.2e+06
B3,3,0.0062,2.1e+06
B4,0.72,0.00093,1.3e+06

# Target: T1, human TIGIT over-expressed on cells
# Assay: competition FACS, CHO cells expressing human TIGIT; competitor PVR recombinant protein
# Experimental: The mixture was equilibrated for 30 minutes at room temperature, and washed three times with FACS buffer (PBS containing 1% BSA). PE/Cy5 Streptavidin secondary antibody was then added to the mixtures and incubated for 15 minutes at room temperature. Subsequently, the cells were washed with FACS buffer and analyzed by flow cytometry. Data was analyzed with PRISM™ (GraphPad Software, San Diego, Calif.) using non-linear regression, and IC₅₀ values were calculated (FIGS. 4A-4B and Table 6).
Binder,Bottom (best-fit),IC50 [nM],Top (best-fit)
B1,8.9,2.4,56.9
B2,8.8,1.1,69.7
B3,10.4,0.7,73.8
B4,11.8,0.6,68.8

# Target: T1, human TIGIT over-expressed on cells
# Assay: cell-based or functional assay
# Remark: another data set of the same source
Binder,"luciferase signal in T cell activation, Bottom (best-fit)","luciferase signal in T cell activation, EC50 [nM]","luciferase signal in T cell activation, Top (best-fit)"
B1,6,6.42,147
B2,4.5,8.54,99
B4,5.4,4.38,153
